Experimental data published in paper PMC12090190 (ACS Chemical Biology, 2025).

Assays:
[1] = biological target: T1, WT hOTC (human ornithine transcarbamylase) (Homo sapiens, UniProt P00480); assay: differential scanning fluorimetry; type: binding; conditions: 4 μM enzyme; 10 mM sodium phosphate
T1 sequence (P00480 33-354): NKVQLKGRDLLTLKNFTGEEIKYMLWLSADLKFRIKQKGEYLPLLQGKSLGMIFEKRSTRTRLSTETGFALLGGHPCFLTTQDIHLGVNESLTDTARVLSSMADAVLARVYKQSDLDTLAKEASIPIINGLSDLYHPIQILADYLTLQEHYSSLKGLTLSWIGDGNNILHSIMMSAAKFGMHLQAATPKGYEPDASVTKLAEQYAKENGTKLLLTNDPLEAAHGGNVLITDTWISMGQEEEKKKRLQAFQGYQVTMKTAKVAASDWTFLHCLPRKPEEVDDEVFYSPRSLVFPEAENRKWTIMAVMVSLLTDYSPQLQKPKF

[2] = substrate: NC(=O)OP(=O)(O)O; assay: discontinuous colorimetric citrulline assay, steady-state kinetics; type: biochemical, Homo sapiens; conditions: co-substrate ornithine

In the case of O=P(O)(O)O [phosphate], the dTm [1] is reported as “The addition of phosphate generally increased the melting temperature of these variants”.

B1: WT hOTC (human ornithine transcarbamylase) (Homo sapiens) (protein)
chain: T1 sequence (P00480 33-354)
Molecule B1 has a Km [2] of 240 ± 70 µM, a kcat [2] of 56 ± 9.8 s⁻¹ and a kcat/Km [2] of 240000 ± 29000 M⁻¹ s⁻¹.
